Experimental findings from patent US20080014203A1 (published 2008) are described below.

Substitutions are numbered along the chain they refer to. Where only a bound is given, the exact number is not on record here.

In assay [1] the target is IGF-I receptor (IGF-IR) on tumor cells (HT29, NCI H322M) or on 3T3 cells transfected with IGF-IR (human) (UniProt P08069). In words: cell-based or functional assay.
In assay [2] the target is T1, IGF-I receptor (IGF-IR) on tumor cells (HT29, NCI H322M) or on 3T3 cells transfected with IGF-IR (human, UniProt P08069 31-736; P08069 741-1367, Natural receptor on cells: glycosylated, disulfide-linked alpha2-beta2 heterotetramer. One alpha and one beta chain are given.).
T1 construct: also called IGF-1R
In words: displacement of I^125-labeled IGF-I from human tumor cells expressing IGF-IR (HT29, NCI H322M), scintillation counting.

The target in assay [3] is T2, IGF-IR extracellular domain (human, UniProt P08069 31-935).
T2 construct: extracellular domain; also called IGF-1R; insulin-like growth factor I receptor
Kind of assay: SPR (BIACORE 3000); antibody captured by anti-human Fcγ antibody, IGF-IR extracellular domain in solution.

αIR3 (antibody): in assay [1], the Akt/PKB phosphorylation without IGF-I ligand (Western blot) was more than 5 nM.

B1: <IGF-1R>HUMAB Clone 18 (antibody 18) (antibody, V domains shown)
VH: QVELVESGGGVVQPGRSQRLSCAASGFTFSSYGMHWVRQAPGKGLEWVAIIWFDGSSTYYADSVRGRFTISRDNSKNTLYLQMNSLRAEDTAVYFCARELGRRYFDLWGRGTLVSVSS
VL: EIVLTQSPATLSLSPGERATLSCRASQSVSSYLAWYQQKPGQAPRLLIYDASKRATGIPARFSGSGSGTDFTLTISSLEPEDFAVYYCQQRSKWPPWTFGQGTKVESK
For B1, the IC50 in assay [2] was found to be 0.3 nM. In assay [3], this molecule registered a Kd of 0.000695 nM, a koff of 1.03e-07 s⁻¹ and an on-rate (kon) of 149000 M⁻¹ s⁻¹.

B2: <IGF-1R>HUMAB Clone 22 (antibody 22) (antibody, V domains shown)
VH: VQLVESGGGVVQPGRSLRLSCAASGFTFSSYGMHWVRQAPGKGLEWMAIIWFDGSSKYYGDSVKGRFTISRDNSKNTLYLQMNSLRADDTAVYYCARELGRRYFDLWGRGTLVTVSS
VL: B1 VL with K53N, S107I
In assay [3], B2 displayed an equilibrium dissociation constant (Kd) of 0.656 nM, an off-rate (koff) of 9.64e-05 s⁻¹ and a kon of 147000 M⁻¹ s⁻¹.

As a reminder, the IC50 is the concentration needed to halve the response being measured. The low end stands for greater potency, the high end for weaker potency. Broadly, the Kd is the concentration at which binding is half-saturated. By koff is commonly meant the rate constant with which the complex falls apart. As usually defined, the kon is the rate constant with which the complex forms.
